Measurements: patent publication US20250333461A1 (BEIJING QL BIOPHARMACEUTICAL, published 2025)

Target: human beta-Klotho (human, UniProt Q86Z14 1-1044)
Test: cell-based or functional assay

- FGF21 activity (EC50, nM); p-ERK levels, 1% HSA: 0.96 nM
B1: Native FGF21 (ligand)
chain: HPIPDSSPLLQFGGQVRQRYLYTDDAQQTEAHLEIREDGTVGGAADQSPESLLQLKALKPGVIQILGVKTSRFLCQRPDGALYGSLHFDPEACSFRELLLEDGYNVYQSEAHGLPLHLPGNKSPHRDPAPRGPARFLPLPGLPPALPEPPGILAPQPPDVGSSDPLSMVGPSQGRSPSYAS
